Test results as given in PMC9974466 (Proceedings of the National Academy of Sciences of the …, 2023).
“Also recorded” adds a separate entry of the source. Read-outs that look alike come from different tables or passages of the source. Ends that are not written are not given here.

Experiments:
[1] = biological target: T1, human PTHR1 (SGS-72 cells, SaOS-2 derived) (Homo sapiens, UniProt Q03431); experiment: PTH-stimulated cAMP formation in SGS-72 reporter cells (Glosensor); type: cell-based; conditions: for Biological activity relative to corresponding PTH(1-34) analog (in words): compared with PTH(1-34) analogs
T1 construct: SGS-72 cells, i.e., human osteosarcoma SaOS-2 cells stably expressing the Glosensor cAMP reporter; endogenous in cells; host or cells: SGS-72 (human osteosarcoma SaOS-2-derived)
T1 sequence (Q03431 27-593): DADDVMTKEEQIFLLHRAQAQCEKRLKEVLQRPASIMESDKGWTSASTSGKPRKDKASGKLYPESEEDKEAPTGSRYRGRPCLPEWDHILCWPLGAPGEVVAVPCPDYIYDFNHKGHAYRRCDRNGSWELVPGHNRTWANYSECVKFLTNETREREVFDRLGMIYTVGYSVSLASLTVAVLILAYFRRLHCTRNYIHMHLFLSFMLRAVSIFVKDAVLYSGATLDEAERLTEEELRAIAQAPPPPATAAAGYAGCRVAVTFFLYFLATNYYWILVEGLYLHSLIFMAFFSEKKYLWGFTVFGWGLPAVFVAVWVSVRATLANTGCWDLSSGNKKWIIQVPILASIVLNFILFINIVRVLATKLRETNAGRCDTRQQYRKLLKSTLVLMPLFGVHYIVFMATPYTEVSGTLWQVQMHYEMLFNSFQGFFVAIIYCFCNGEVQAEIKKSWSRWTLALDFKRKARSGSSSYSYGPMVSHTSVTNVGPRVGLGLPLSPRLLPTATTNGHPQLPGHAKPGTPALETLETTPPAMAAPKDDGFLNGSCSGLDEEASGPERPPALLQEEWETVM
Experimental: (§1) SGS-72 cells, i.e., human osteosarcoma SaOS-2 cells stably expressing the Glosensor cAMP reporter, were maintained in modified McCoy’s 5A medium [15% FBS, 1% penicillin/streptomycin, and 1% nonessential amino acids, as described ([29])]. GP2.3 cells, i.e., HEK293 cells stably expressing the human PTHR1 and the Glosensor cAMP reporter, were maintained in DMEM (10% FBS, 1% penicillin/streptomycin), as described ([24]). Cells were seeded into 96‐well white plates (40,000 cells/100µL/well); 24 to 48 h after confluency, the wells were rinsed with 100 µL carbon dioxide-independent culture medium (CIDB; Life Technologies) containing 0.1% bovine serum albumin (BSA), which was then replaced with 90 µL of luciferin (0.5 mM in CIDB) for 15 min before adding 10 µL of increasing concentrations of PTH analogs diluted in CIDB or 10 µL of CIDB, and then measuring cAMP‐dependent luminescence at 2‐min intervals using a PerkinElmer Envision plate reader (PerkinElmer), as described ([24]). […] GP2.3 cells were also used for the evaluation of CM from transfected COS-7 cells; PTH(1-84) served as control.
SGS-72 cells were used for assessing PTH-stimulated cAMP formation. 10 µL of increasing concentrations of [S1]PTH(−6 to +34) or [P1]PTH(−6 to +34) before and after incubation with furin were diluted in CIDB buffer.

furin = biological target: T2, furin (Homo sapiens, UniProt P09958); experiment: Assessment of PTH analogs cleavage by furin (HPLC and MassSpec); type: biochemical; conditions: peptide 10 µg with furin 8U, HEPES buffer pH 7.4, RT, 60 min, final volume 30 µL; HPLC C18 4-76% ACN/0.05% TFA over 40 min and MassSpec
T2 construct: purchased New England Biolabs
T2 sequence (P09958 108-595 limits assumed): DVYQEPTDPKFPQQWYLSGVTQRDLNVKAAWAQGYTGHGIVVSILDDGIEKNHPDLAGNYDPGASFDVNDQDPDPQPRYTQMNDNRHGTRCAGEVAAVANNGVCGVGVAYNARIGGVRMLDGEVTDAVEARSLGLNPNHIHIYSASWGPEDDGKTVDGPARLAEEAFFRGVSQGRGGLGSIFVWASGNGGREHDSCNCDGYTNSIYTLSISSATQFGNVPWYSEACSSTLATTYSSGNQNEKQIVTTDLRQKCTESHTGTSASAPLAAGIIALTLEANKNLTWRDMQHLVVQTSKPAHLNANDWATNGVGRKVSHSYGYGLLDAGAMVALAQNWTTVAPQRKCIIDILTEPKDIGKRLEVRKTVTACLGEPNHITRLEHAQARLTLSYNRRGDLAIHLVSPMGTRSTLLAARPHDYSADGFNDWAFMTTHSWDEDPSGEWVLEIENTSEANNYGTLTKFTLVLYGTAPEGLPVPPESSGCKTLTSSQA
Experimental: [S1]PTH(−6 to +34) or [P1]PTH(−6 to +34) (10 µg/10 µL 10 mM acetic acid) was incubated with furin (8U/4 μL) (New England Biolabs) and furin buffer (50 mM HEPES (4-(2-hydroxyethyl)-1-piperazineethanesulfonic acid)–KOH (potassium hydroxide) (pH 7.4), 150 mM NaCl, 5 mM MgCl2, 16 mM imidazole, 2% glycerol, 0.15 mM EGTA, 500 μM ATP, 0.5% Triton-X100, 2 mM CaCl2, and 2 mM β-mercaptoethanol) (RT, 60 min; final volume 30 µL) (New England Biolabs), as recommended by the manufacturer, before adding EGTA (100 μM, 3 μL). In some experiments, 1 μL of the reaction buffer was replaced with the furin inhibitor Decanoyl-RVKR-CMK (Tocris Bioscience; 50 μM in water). To assess cleavage, 5 µL of furin-treated or untreated peptides (1.5 µg each) was loaded onto a C18 column (2.1 mm × 150 mm, Higgins Analytical, Inc.), and a gradient of 4 to 76% ACN/0.05% TFA over 40 min (200 µL/min) was applied. To determine the molecular weight, 10 µL of furin-treated or untreated peptides was loaded onto a C18 ZipTip (Millipore Corporation) that had been rinsed with 100% ACN/0.01% TFA (2 × 20 μL) followed by equilibration with H2O/0.01% TFA (5 × 20 μL). Peptide elution with 100% ACN/0.01% TFA was followed by speed vac and MassSpec analysis.

[2] = tested on: anti-[P1]PTH(−6 to +3)^Biotin antibody; experiment: Epitope characterization ELISA with anti-[P1]PTH(−6 to +3)^Biotin capture antibody; type: binding
Description: For additional characterization of our anti-[P1]PTH(−6 to +3) antibody, we biotin-labeled this antibody for use as capture antibody (anti-[P1]PTH(−6 to +3)^Biotin antibody) in combination with the HRP-labeled detection antibody from the intact PTH assay (Immutopics) that is directed against PTH(13-34) (SI Appendix, Fig. S3).
(§2) pro[P1]PTH(−6 to +3) was conjugated to SulfoLink coupling gel via the C-terminal cysteine (PIERCE) for affinity purification of the rabbit antibodies, which were then HRP-labeled using EZ-Link Plus Activated Peroxidase Kit (Thermo Fisher Scientific), following the manufacturer’s protocol. The anti-pro[P1]PTH(−6 to +3) antibody was also conjugated to biotin using EZ-LinkTM Sulfo-NHS-LC-Biotinylation Kit (Thermo Fisher Scientific), following the manufacturer’s protocol, except using 40-fold instead of 20-fold excess of biotin. After biotin coupling, 15% of rabbit serum were added to the biotinylated antibody [anti-pro[P1]PTH(−6 to +3)^Biotin].
100 Defining the epitope of the antibody raised against [P1]PTH(-6 to +15) that was affinity purified with
101 immobilized [P1]PTH(-6 to +3).
102 The anti-[P1]PTH(-6 to +3) antibody was coupled to biotin (anti-[P1]PTH(-6 to +3)Biotin antibody) and
103 used as capture antibody in combination with the detection anti-PTH(13-34) antibody provided in
104 the intact PTH assay (Immutopics). Epitope of the affinity purified anti-[P1]PTH(-6 to +3)Biotin
105 antibody was partially defined by using [P1]PTH(-6 to +34) and [S1]PTH(-6 to +34), as well as
111 recognized by the anti-[P1]PTH(-6 to +3)Biotin antibody resides predominantly in the -6 to -4 region.
(1 picture or pasted object on this page, not shown here)

human PTHR1 = biological target: T3, human PTHR1 (Homo sapiens, UniProt Q03431); experiment: PTH-stimulated cAMP formation in GP2.3 reporter cells (Glosensor); type: cell-based; conditions: GP2.3 cells; synthetic peptides; mean ± SEM, n = 3; maximum luminescence 20 to 23 min
T3 construct: expressed in transfected cells; host or cells: GP2.3 (HEK293-derived)
T3 sequence (Q03431 27-593): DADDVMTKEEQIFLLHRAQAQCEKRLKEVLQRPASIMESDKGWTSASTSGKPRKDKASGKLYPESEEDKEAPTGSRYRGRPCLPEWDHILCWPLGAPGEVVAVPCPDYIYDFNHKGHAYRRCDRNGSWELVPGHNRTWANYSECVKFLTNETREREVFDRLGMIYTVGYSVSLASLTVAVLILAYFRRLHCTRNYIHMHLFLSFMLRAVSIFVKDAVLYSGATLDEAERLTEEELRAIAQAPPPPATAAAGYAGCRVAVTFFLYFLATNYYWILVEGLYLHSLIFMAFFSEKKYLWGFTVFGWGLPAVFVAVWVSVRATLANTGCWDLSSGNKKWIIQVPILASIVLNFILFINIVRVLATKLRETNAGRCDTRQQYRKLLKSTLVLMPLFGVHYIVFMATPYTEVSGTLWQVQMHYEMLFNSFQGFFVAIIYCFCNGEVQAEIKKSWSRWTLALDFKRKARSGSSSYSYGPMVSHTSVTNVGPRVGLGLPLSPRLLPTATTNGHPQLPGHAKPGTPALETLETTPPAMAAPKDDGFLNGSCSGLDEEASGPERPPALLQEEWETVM
Experimental: as §1

[3] = tested on: anti-pro[P1]PTH^HRP antibody; experiment: pro[P1]PTH immunoassay with anti-pro[P1]PTH^HRP detection antibody; type: binding
Description: To allow quantification of pro[P1]PTH in CM and in plasma of our patients with the homozygous P1 mutation, we replaced the detection antibody in an intact PTH assay (Immutopics) with a horseradish peroxidase (HRP)-labeled antibody raised against pro[P1]PTH(−6 to +15), which was affinity purified with pro[P1]PTH(−6 to +3) (anti-pro[P1]PTH^HRP antibody) (Materials and Methods).
as §2, with “+3)^Biotin]. […]” for “+3)^Biotin].”

[4] = anti-[P1]PTH(−6 to +3)^Biotin capture, anti-PTH(13-34) HRP detection, n = 2 to 4

[S1]PTH(−6 to +34): synthetic proPTH(−6 to +34) with serine at position 1
Biological activity relative to corresponding PTH(1-34) analog (in words) [1]: more than an order of magnitude lower | Biological activity relative to corresponding PTH(1-34) analog (in words) ([1]; listed as pro[S1]PTH(−6 to +34)): much less bioactivity than the corresponding PTH(1-34) analogs | Maximum cAMP formation relative to [S1]PTH(1-34) ([1]; furin-treated, maximum at 10^−7 M): 115.7 ± 8.6% | EC50 ([1]; no furin, [S1] series (Fig. 3A), n = 2, top constrained to maximum cAMP by PTH(1-34) at 10^−7 M, read-out: EC50 for cAMP formation, without furin (curve top constrained)): 16.4 ± 4.7 nM | EC50 ([1]; with Decanoyl-RVKR-CMK (3 μL of 50 μM), Fig. 3A, n = 2, top constrained to maximum cAMP by PTH(1-34) at 10^−7 M, read-out: Estimated EC50 for cAMP formation, with furin inhibitor): 272 ± 166 nM | Cleavage by furin (furin): after incubation with furin, most of the peptide eluted at fraction #29 (55% ACN) | Detection / cross-reactivity (in words) [2, 4]: detected equivalently | Detection / cross-reactivity (in words) ([2]; anti-[P1]PTH(−6 to +3)^Biotin capture, anti-PTH(13-34) HRP detection, n = 2 to 4, listed as [S1]PTH(-6 to +34)): detected equally well | Reduction of detection after incubation with furin ([2]; furin-treated): at least 10 fold

PTH(4-34): synthetic amino-terminally shortened peptide (EIQLMHNLGKHLNSMERVEWLRKKLQDVHNF-NH2; UniProt P01270 35-65, looked up, fragment)
Detection / cross-reactivity (in words) [2, 4]: not detected at all

CC[C@H](C)[C@H](NC(=O)[C@H](CCC(=O)O)NC(=O)[C@H](CO)NC(=O)[C@@H](NC(=O)[C@@H]1CCCN1)C(C)C)C(=O)N[C@@H](CCC(N)=O)C(=O)N[C@@H](CC(C)C)C(=O)N[C@@H](CCSC)C(=O)N[C@@H](Cc1c[nH]cn1)C(=O)N[C@@H](CC(N)=O)C(=O)N[C@@H](CC(C)C)C(=O)NCC(=O)N[C@@H](CCCCN)C(=O)N[C@@H](Cc1c[nH]cn1)C(=O)N[C@@H](CC(C)C)C(=O)N[C@@H](CC(N)=O)C(=O)N[C@@H](CO)C(=O)N[C@@H](CCSC)C(=O)N[C@@H](CCC(=O)O)C(=O)N[C@@H](CCCNC(=N)N)C(=O)N[C@H](C(=O)N[C@@H](CCC(=O)O)C(=O)N[C@@H](Cc1c[nH]c2ccccc12)C(=O)N[C@@H](CC(C)C)C(=O)N[C@@H](CCCNC(=N)N)C(=O)N[C@@H](CCCCN)C(=O)N[C@@H](CCCCN)C(=O)N[C@@H](CC(C)C)C(=O)N[C@@H](CCC(N)=O)C(=O)N[C@@H](CC(=O)O)C(=O)N[C@H](C(=O)N[C@@H](Cc1c[nH]cn1)C(=O)N[C@@H](CC(N)=O)C(=O)N[C@@H](Cc1ccccc1)C(N)=O)C(C)C)C(C)C [[P1]PTH(1-34)]
EC50 (human PTHR1): 3.2 ± 0.9 nM | EC50 ([1]; synthetic peptides, mean ± SEM, n = 3 (Fig. 2B), read-out: EC50 for cAMP formation): 0.5 ± 0.3 nM

PTH(3-34): synthetic amino-terminally shortened peptide (SEIQLMHNLGKHLNSMERVEWLRKKLQDVHNF-NH2; UniProt P01270 34-65, looked up, fragment)
Detection / cross-reactivity (in words) [2, 4]: not detected at all

PTH(2-34): synthetic amino-terminally shortened peptide (VSEIQLMHNLGKHLNSMERVEWLRKKLQDVHNF-NH2; UniProt P01270 33-65, looked up, fragment)
Detection / cross-reactivity (in words) [2, 4]: only minimal cross-reactivity at very high concentrations

B1: pro[P1]PTH: mutant pro-hormone secreted by COS-7 cells expressing prepro[P1]PTH(1-84) and present in patients' plasma (protein, UniProt P01270 26-115, looked up, variant S1P)
pro-form: KSVKKRPVSEIQLMHNLGKHLNSMERVEWLRKKLQDVHNFVALGAPLAPRDAGSQRPRKKEDNVLVESHEKSLGEADKADVNVLTKAKSQ
modifications: pro-form
notes: mutant pro-hormone secreted by COS-7 cells expressing prepro[P1]PTH(1-84) and present in patients' plasma
Half maximum binding of the anti-pro[P1]PTH^HRP detection antibody ([3]; capture anti-PTH(39-84), HRP detection, CM standard): 1,032 pg/mL | Half-maximal binding [2, 4]: 1,330 pg/mL

B2: SVSEIQ … LMHNLGKHLNSMERVEWLRKKLQDVHNFVALGAPLAPRDAGSQRPRKKEDNVLVESHEKSLGEADKADVNVLTKAKSQ (protein, UniProt P01270 32-115, looked up)
Parathyroid hormone: SVSEIQLMHNLGKHLNSMERVEWLRKKLQDVHNFVALGAPLAPRDAGSQRPRKKEDNVLVESHEKSLGEADKADVNVLTKAKSQ
modifications: Parathyroid hormone
notes: Recombinant PTH(1-84) was from Chugai Pharmaceutical Co., Ltd
Detection / cross-reactivity in pro[P1]PTH assay ([3]; vs. pro[P1]PTH, up to very high concentrations): barely detected; also recorded: minimal even at very high concentrations; also recorded: extremely low
